Target: Scribble PDZ1 (His-tagged, aa 719-829) (human, UniProt Q14160 719-829)
Assay: ITC

Sequence of Scribble PDZ1 (His-tagged, aa 719-829) (Q14160 719-829): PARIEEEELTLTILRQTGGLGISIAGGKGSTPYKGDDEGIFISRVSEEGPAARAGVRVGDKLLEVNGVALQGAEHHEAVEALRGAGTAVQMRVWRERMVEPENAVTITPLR

B1: ARVSKETPL (MAPK12 peptide, unphosphorylated) (peptide)
peptide: ARVSKETPL
B1 showed a Kd of 1600 nM.

Reference: PMC6100724 (2018)
